We go through three molecules from patent US20190134214A1, “GLP-1 Receptor Ligand Moiety Conjugated Oligonucleotides and Uses Thereof” (published 2019).

Square brackets hold non-standard residues; d marks the D form. Ends that are not written are not given here. Aib = CC(C)(N)C(=O)O

The target in experiment [1] is FLAG-tagged GLP1R, stably expressed in HEK 293 cells (LVX-GLP1R cells).
For experiment [2], the target named is human GLP-1 receptor (hGLP1R), stably expressed in HEK293 cells (hGLP1R-HEK) (human, UniProt P43220). In words: cell-based or functional assay.
For experiment [3], the target named is FLAG-tagged GLP1R, stably expressed in HEK 293 cells (LVX-GLP1R cells). This is another data set of the same source.
For experiment [4], the target named is GLP-1 receptor of mouse primary islets of Langerhans (mouse, UniProt O35659). In words: cell-based or functional assay.

B1: GLP-1 conjugated MALAT1 ASO (ISIS 816385) (peptide)
peptide: H[Aib]EGTFTSDVSSYLEEQAAKEFIAWLVKGGPSSGAPPPSC-NH2
modifications: not fully specified (residue 40); also: Cys40 disulfide via 3-mercaptopropionate linker to 5'-hexylamino ASO ISIS 786434
Molecule B1 displayed an IC50 of peptide-conjugated ASO activity (MALAT1 RNA) in LVX-GLP1R cells in experiment [1] of 350 nM. In experiment [2], the “IC50 of inhibition of MALAT1 mRNA in hGLP1R-HEK cells” value is 20 nM. Moreover, in experiment [3], the IC50 of MALAT-1 expression in GLP1R HEK cells was found to be 260 nM.

B2: GLP-1 peptide conjugated ASO targeted to FOXO1 (ION 913193) (peptide)
peptide: H[Aib]EGTFTSDVSSYLEEQAAKEFIAWLVKGGPSSGAPPPSC-NH2
modifications: not fully specified (residue 40); also: Cys40 disulfide via 3-mercaptopropionate linker to 5'-hexylamino ASO ION 913192
Consider B2, for which the “Islet FOXO1 mRNA levels relative to control (RPLP0), percent of untreated, 96 hours, 1 µM” value in experiment [4] is 25%.

B3: 5'-GLP-1 peptide conjugated ASO targeted to MALAT1 (ION 962963) (peptide)
peptide: H[Aib]EGTFTSDVSSYLEEQAAKEFIAWLVKGGPSSGAPPPSC-NH2
modifications: not fully specified (residue 40); also: Cys40 disulfide to 3-mercaptopropionate linker
Regarding B3, the IC50 of MALAT-1 expression in GLP1R HEK cells in experiment [3] stood at 350 nM.
